Measurements from patent publication US8940861B2, “Variants of ancestral uricases and uses thereof” (Georgia Tech Research Corporation, priority 2010, dated 2015).

Substrate: O=c1[nH]c(=O)c2[nH]c(=O)[nH]c2[nH]1
Experiment: purified protein, by the assay type
Conditions: other: 0.1M Na2HPO4/Na2H2PO4, pH 7.4, 24° C.

B1: pig uricase, SEQ ID NO:10 (Sus scrofa) (protein)
chain: MAHYRNDYKKNDEVEFVRTGYGKDMIKVLHIQRDGKYHSIKEVATSVQLTLSSKKDYLHGDNSDVIPTDTIKNTVNVLAKFKGIKSIETFAVTICEHFLSSFKHVIRAQVYVEEVPWKRFEKNGVKHVHAFIYTPTGTHFCEVEQIRNGPPVIHSGIKDLKVLKTTQSGFEGFIKDQFTTLPEVKDRCFATQVYCKWRYHQGRDVDFEATWDTVRSIVLQKFAGPYDKGEYSPSVQKTLYDIQVLTLGQVPEIEDMEISLPNIHYLNIDMSKMGLINKEEVLLPLDNPYGRITGTVKRKLTSRL
Km: 2.1 µM
kcat: 7.83 s⁻¹
